Measured values reported in patent US20220040304A1, “A COMPOSITION FOR CANCER CELL DEATH AND ITS USE” (Industry-University Cooperation Foundation Hanyang …, priority 2018, published 2022).
Entries after “also recorded” stand apart in the source; their conditions may differ.

B1: RLuc8.6-KR-LP: fusion protein of RLuc8.6, KillerRed and lead peptide WLEAAYQRFL, 71 kDa (protein)
chain: MRGSHHHHHHGMASMTGGQQMGRDLYDDDDKDPMASKVYDPEQRKRMITGPQWWARCKQMNVLDSFINYYDSEKHAENAVIFLHGNATSSYLWRHVVPHIEPVARCIIPDLIGMGKSGKSGNGSYRLLDHYKYLTAWFELLNLPKKIIFVGHDWGSALAFHYAYEHQDRIKAIVHMESVVDVIESWMGWPDIEEELALIKSEEGEKMVLENNFFVETLLPSKIMRKLEPEEFAAYLEPFKEKGEVRRPTLSWPREIPLVKGGKPDVVQIVRNYNAYLRASDDLPKLFIESDPGFFYNAIVEGAKKFPNTEFVKVKGLHFLQEDAPDEMGKYIKSFVERVLKNEQEFGGGMLCCMRRTKQVEKNDEDQKISEGGPALFQSDMTFKIFIDGEVNGQKFTIVADGSSKFPHGDFNVHAVCETGKLPMSWKPICHLIQYGEPFFARYPDGISHFAQECFPEGLSIDRTVRFENDGTMTSHHTYELDDTCVVSRITVNCDGFQPDGPIMRDQLVDILPNETHMFPHGPNAVRQLAFIGFTTADGGLMMGHFDSKMTFNGSRAIEIPGPHFVTIITKQMRDTSDKRDHVCQREVAYAHSVPRITSAIGSDEDGGGWLEAAYQRFL
modifications: pRSET-RLuc8.6-KillerRed-Lead peptide
B2: KR: first protein KillerRed, ROS-generating protein (superoxide), expressed from pRSET-KillerRed, 31 kDa (protein)
chain: MRGSHHHHHHGMASMTGGQQMGRDLYDDDDKDPMLCCMRRTKQVEKNDEDQKISEGGPALFQSDMTFKIFIDGEVNGQKFTIVADGSSKFPHGDFNVHAVCETGKLPMSWKPICHLIQYGEPFFARYPDGISHFAQECFPEGLSIDRTVRFENDGTMTSHHTYELDDTCVVSRITVNCDGFQPDGPIMRDQLVDILPNETHMFPHGPNAVRQLAFIGFTTADGGLMMGHFDSKMTFNGSRAIEIPGPHFVTIITKQMRDTSDKRDHVCQREVAYAHSVPRITSAIGSDED
modifications: pRSET-KillerRed
notes: first protein KillerRed, ROS-generating protein (superoxide), expressed from pRSET-KillerRed, 31 kDa
B3: RLuc8.6-KR: fusion protein of RLuc8.6 and KillerRed without lead peptide, 69 kDa (protein)
chain: MRGSHHHHHHGMASMTGGQQMGRDLYDDDDKDPMASKVYDPEQRKRMITGPQWWARCKQMNVLDSFINYYDSEKHAENAVIFLHGNATSSYLWRHVVPHIEPVARCIIPDLIGMGKSGKSGNGSYRLLDHYKYLTAWFELLNLPKKIIFVGHDWGSALAFHYAYEHQDRIKAIVHMESVVDVIESWMGWPDIEEELALIKSEEGEKMVLENNFFVETLLPSKIMRKLEPEEFAAYLEPFKEKGEVRRPTLSWPREIPLVKGGKPDVVQIVRNYNAYLRASDDLPKLFIESDPGFFYNAIVEGAKKFPNTEFVKVKGLHFLQEDAPDEMGKYIKSFVERVLKNEQEFGGGMLCCMRRTKQVEKNDEDQKISEGGPALFQSDMTFKIFIDGEVNGQKFTIVADGSSKFPHGDFNVHAVCETGKLPMSWKPICHLIQYGEPFFARYPDGISHFAQECFPEGLSIDRTVRFENDGTMTSHHTYELDDTCVVSRITVNCDGFQPDGPIMRDQLVDILPNETHMFPHGPNAVRQLAFIGFTTADGGLMMGHFDSKMTFNGSRAIEIPGPHFVTIITKQMRDTSDKRDHVCQREVAYAHSVPRITSAIGSDED
modifications: pRSET-RLuc8.6-KillerRed

Experiments:
Assay type in all cases: cell-based, human
[1] = test system: MCF-7 cells; assay: Cell death by SYTOX Green or EthD-1 and DAPI fluorescence (light irradiation or Co-h); details: MCF-7, protein 10 μM 24 hours; light 10 mW/cm^2 or Co-h 150 μM over time
Procedure: MCF-7 cells were seeded at 5×10^5 cells/mL in a 96-well plate (SPL Cell Culture Plate, 96 well (SPL, Cat #30096)), and cultured at 37° C. for 24 hours (overnight). After the culture for 24 hours, the cells were washed with FBS & Phenol red-free media (RPMI), and 100 μL of an FBS-free medium containing the purified protein (final concentration: 10 μM) was added, followed by reaction at 37° C. for 24 hours.
After the reaction for 24 hours, the cells were washed with FBS & Phenol red-free media (RPMI), and then 100 μL of FBS & Phenol red-free media (RPMI) was then added.
After the reaction, 8.1 μL of FMN (final concentration: 150 μM) was added. After reaction for 18 hours or 24 hours, the cells were washed with FBS & Phenol red-free media (RPMI), and 100 μL of FBS & Phenol red-free media (RPMI) containing FMN (final concentration: 150 μM) was added, followed by reaction at 37° C. for 1 hour.
After the irradiation with light at 10 mW/cm^2 over time, 50 μL of SYTOX Green (Thermo Scientific Inc., USA; final concentration: 261 nM) staining DNA of dead cells was added and reacted at 37° C. for 30 minutes, and 10 μL of DAPI (Vecta Labs., Australia) staining DNA of live cells was added and reacted for 5 minutes.
SYTOX Green or EthD-1 and DAPI fluorescence images were observed using a confocal microscope according to a protein type treated to cells and i) light irradiation time or ii) reaction time with a Co-h substrate, and cell death was confirmed by measuring relative fluorescence intensity at an excitation wavelength of 504 nm and an emission wavelength of 523 nm of SYTOX Green, and an excitation wavelength of 525 nm and an emission wavelength of 590 nm of EthD-1 using a plate reader.
Whether or not Cell death was observed by fluorescence microscopy using SYTOX Green (dead cell-specific dye, green) or EthD-1 (dead cell-specific dye, red) and DAPI (live cell-specific dye, blue).

[2] = test system: MCF-7 cells; assay: MTT colorimetric change and cell viability after light irradiation; details: MCF-7, protein 10 μM 24 hours, light 10 mW/cm^2, no Co-h
Procedure: MCF-7 cells were seeded at 5×10^5 cells/mL in a 96-well plate (SPL Cell Culture Plate, 96 well (SPL, Cat #30096)), and cultured at 37° C. for 24 hours (overnight). After the overnight culture, the cells were washed with FBS & Phenol red-free media (RPMI, Well Gene., Korea, Cat #LM011-02), and 100 μL of an FBS-free medium containing the purified protein (final concentration: 10 μM) was added, followed by reaction at 37° C. for 24 hours. After the reaction for 24 hours, the cells were washed with FBS & Phenol red-free media (RPMI), and then 100 μL of FBS & Phenol red-free media (RPMI) was added again. After light irradiation at 10 mW/cm^2 over time, the cells were washed with FBS & Phenol red-free media (RPMI), and 100 μL of FBS & Phenol red-free media (RPMI) was added again. 10 μL of 3-(4,5-dimethylthiazol-2-yl)-2,5-diphenyltetrazolium bromide (MTT; Cell Biolabs Inc., USA; final concentration: 1×) was added, followed by reaction at 37° C. for 4 hours. 100 μL of a supernatant was removed, and 100 μL of DMSO (Sigma-Aldrich., USA) was added, followed by reaction for 10 minutes. The colorimetric change of MTT according to a protein type treated to the cells and light irradiation time was confirmed, and then cell viability was confirmed by measuring the absorbance intensity at 570 nm using a plate reader.

[3] = test system: MCF-7 cells; assay: MTT colorimetric change and cell viability after reaction with Co-h substrate; details: MCF-7, protein 10 μM 24 hours, Co-h 150 μM, without light irradiation
Procedure: MCF-7 cells were seeded at 5×10^5 cells/mL in a 96-well plate (SPL Cell Culture Plate, 96 well (SPL, Cat #30096)), and cultured at 37° C. for 24 hours (overnight).
After the culture for 24 hours, the cells were washed with FBS & Phenol red-free media (RPMI), and 100 μL of an FBS-free medium containing the purified protein (final concentration: 10 μM) was added, followed by reaction at 37° C. for 24 hours.
After the reaction for 24 hours, the cells were washed with FBS & Phenol red-free media (RPMI), and then 100 μL of FBS & Phenol red-free media (RPMI) containing a Co-h substrate solution (final concentration: 150 μM) was added. The cells were washed with FBS & Phenol red-free media (RPMI), and 100 μL of fresh FBS & Phenol red-free media (RPMI) were then added.
10 μL of 3-(4,5-dimethylthiazol-2-yl)-2,5-diphenyltetrazolium bromide (MTT) (final concentration: 1×) was added, followed by reaction at 37° C. for 4 hours. After 100 μL of a supernatant was removed, 100 μL of DMSO was added, followed by reaction for 10 minutes. The colorimetric change of MTT according to a protein type treated to the cells and the light irradiation time was checked, and then cell viability was confirmed by measuring the absorbance intensity at 570 nm using a plate reader.
MTT is an assay for measuring cell proliferation or live cells through the presence of blue-violet insoluble […] in the mitochondria of the live cells, where it has been reduced from a yellow soluble substrate, MTT tetrazolium, by the action of a dehydrogenase.

Molecule	cell death by staining (SYTOX Green or EthD-1 dead cells, DAPI live cells) [1]	cell viability / colorimetric change of MTT with light irradiation time [2]	cell viability / colorimetric change of MTT with reaction time with Co-h [3]
B1	stained with SYTOX Green or EthD-1; also recorded: the number of dead cells increases	killed; also recorded: cell viability decreased	die and cell viability is reduced
B2	stained with DAPI	alive	the staining becomes pink
B3	stained with DAPI	alive	the staining becomes pink
